Usually Kd stands for the free concentration of one partner at which half of the binding sites on the other are occupied at equilibrium, for simple one-to-one binding. The term koff denotes the first-order rate constant of dissociation. Broadly, the kon is the second-order rate constant of association. Lower therefore signals slow association.

The record followed here is patent US20240018240A1 (Hoffmann-La Roche, published 2024).

Assay [1] has as its target T1, Human CD3ε stalk-Fc(knob)-Avi/CD3δ stalk-Fc(hole) (human).
T1 construct: Heterodimer of CD3 delta and CD3 epsilon ectodomains fused to a human Fc domain with knob-into-hole modifications and C-terminal Avi-tag; also called human CD3ε/δ; CD3ε/δ
Description: SPR (Biacore T200, 25°C), TCB format, same conditions. From the text:
(§1) For affinity measurements, TCB molecules were captured on a C1 sensorchip (GE Healthcare) surface with immobilized anti-Fc (P329G) IgG (an antibody that specifically binds human IgG₁ Fc (P329G); “anti-PG antibody”—see WO 2017/072210, incorporated herein by reference). The experimental setup is schematically depicted in FIG. 3. Capture IgG was coupled to the sensorchip surface by direct immobilization of around 400 resonance units (RU) using the standard amine coupling kit (GE Healthcare Life Sciences).
(§2) To analyze the interaction to CD3, TCB molecules were captured for 80 s at 25 nM with a flow rate of 10 μl/min. Human and cynomolgus CD3ε stalk-Fc(knob)-Avi/CD3δ stalk-Fc(hole) (CD3ε/δ, see SEQ ID NOs 24 and 25 (human) and SEQ ID NOs 26 and 27 (cynomolgus)) were passed at a concentration of 0.122-125 nM with a flow rate of 30 μl/min through the flow cells for 300 s. The dissociation was monitored for 800 s.
(§3) Kinetic constants were derived using the Biacore T200 Evaluation Software (GE Healthcare Life Sciences), to fit rate equations for 1:1 Langmuir binding by numerical integration. The half-life (t_{1/2}) of the interaction was calculated using the formula t_{1/2}=ln 2/koff.
A general note: SPR reads the build-up and loss of mass on a sensor chip optically.

The target of assay [2] is T1, Human CD3ε stalk-Fc(knob)-Avi/CD3δ …. Briefly: SPR (Biacore T200, 25°C), TCB format, monovalent binding.
Description: as §1, §2, §3

Assay [3] shares this target. Description: SPR (Biacore T200, 25°C); TCB captured by anti-PG antibody on C1 chip, CD3ε/δ-Fc as analyte; 1:1 Langmuir fit.
Description: as §1, §2, §3

The target of assay [4] is T2, Cynomolgus CD3ε stalk-Fc(knob)-Avi/CD3δ stalk-Fc(hole) (cynomolgus).
T2 construct: Heterodimeric Fc fusion, soluble analyte in SPR; also called cynomolgus CD3ε/δ
The assay is described as above.
Description: as §1, §2, §3

The target of assay [5] is T1, Human CD3ε stalk-Fc(knob)-Avi/CD3δ …. Briefly: SPR (Biacore T200, 25°C); TCB captured by anti-PG antibody on C1 chip, CD3ε/δ-Fc as analyte; t1/2 = ln 2/koff.
Description: as §1, §2, §3

The target in assay [6] is T2, Cynomolgus CD3ε stalk-Fc(knob)-Avi/CD3δ …. The assay is described as above.
Description: as §1, §2, §3

Assay [7] has as its target T1, Human CD3ε stalk-Fc(knob)-Avi/CD3δ …. Briefly: SPR (Biacore T200); biotinylated human CD3ε/δ on SA chip, TCB injected at 2 µg/ml; normalised to anti-huIgG capture, relative to the non-stressed sample. As to the method: In order to assess the effect of the deamidation site removal and its effect on the stability of the antibodies, the anti-CD3 antibodies (in TCB format) were incubated for 14 days at 37° C., pH 7.4 and at 40° C., pH 6 and further analyzed by SPR for their binding capability to human CD3ε/δ. Samples stored at −80° C. pH 6 were used as reference. The reference samples and the samples stressed at 40° C. were in 20 mM His, 140 mM NaCl, pH 6.0, and the samples stressed at 37° C. in PBS, pH 7.4, all at a concentration of 1.0 mg/ml. After the stress period (14 days) samples in PBS were dialyzed back to 20 mM His, 140 mM NaCl, pH 6.0 for further analysis.
All SPR experiments were performed on a Biacore T200 instrument (GE Healthcare) at 25° C. with HBS-P+(10 mM HEPES, 150 mM NaCl pH 7.4, 0.05% Surfactant P20) as running and dilution buffer. Biotinylated human CD3ε/δ (see Example 3, SEQ ID NOs 24 and 25) as well as biotinylated anti-huIgG (Capture Select, Thermo Scientific, #7103262100) were immobilized on a Series S Sensor Chip SA (GE Healthcare, #29104992), resulting in surface densities of at least 1000 resonance units (RU). Anti-CD3 antibodies with a concentration of 2 μg/ml were injected for 30 s at a flow rate of 5 μl/min, and dissociation was monitored for 120 s. The surface was regenerated by injecting 10 mM glycine pH 1.5 for 60 s. Bulk refractive index differences were corrected by subtracting blank injections and by subtracting the response obtained from a blank control flow cell. For evaluation, the binding response 5 seconds after injection end was taken. To normalize the binding signal, the CD3 binding was divided by the anti-huIgG response (the signal (RU) obtained upon capture of the CD3 antibody on the immobilized anti-huIgG antibody). The relative binding activity was calculated by referencing each temperature stressed sample to the corresponding, non-stressed sample.

For assay [8] the target is unchanged. Description: SPR (Biacore T200, 25°C), monovalent IgG format, same conditions. The method, then: (§4) SPR experiments were performed as described in Example 3, with the monovalent IgG molecules prepared in Example 6.
(§5) To analyze the interaction to CD3, IgG molecules were captured for 240 s at 50 nM with a flow rate of 5 μl/min. Human and cynomolgus CD3ε stalk-Fc(knob)-Avi/CD3δ-stalk-Fc(hole) were passed at a concentration of 0.061-250 nM with a flow rate of 30 μl/min through the flow cells for 300 s. The dissociation was monitored for 800 s.

Assay [9] shares this target. Briefly: SPR (Biacore T200, 25°C); monovalent IgG captured by anti-PG antibody on C1 chip, CD3ε/δ-Fc as analyte; t1/2 = ln 2/koff. As to the method:
as §3, §4, §5

For assay [10], the target named is T2, Cynomolgus CD3ε stalk-Fc(knob)-Avi/CD3δ …. The description is as above. As to the method: as §3, §4, §5
Assay [11] deals with T1, Human CD3ε stalk-Fc(knob)-Avi/CD3δ …. Briefly: SPR (Biacore T200, 25°C); monovalent IgG captured by anti-PG antibody on C1 chip, CD3ε/δ-Fc as analyte; 1:1 Langmuir fit; triplicates. The method, then: as §3, §4, §5
For assay [12], the target named is T2, Cynomolgus CD3ε stalk-Fc(knob)-Avi/CD3δ …. The assay is described as above. As to the method:
as §3, §4, §5

B1: TYRP1 T-cell bispecific antibody (TCB) comprising anti-CD3 antibody P035.093 (bispecific antibody, human IgG1, kappa, L234A L235A)
heavy 1: not shown
heavy 2: QVQLVQSGAEVKKPGASVKVSCKASGFNIKDYFLHWVRQAPGQGLEWMGWINPDNGNTVYAQKFQGRVTMTADTSTSTVYMELSSLRSEDTAVYYCTRRDYTYEKAALDYWGQGTLVTVSSASTKGPSVFPLAPSSKSTSGGTAALGCLVEDYFPEPVTVSWNSGALTSGVHTFPAVLQSSGLYSLSSVVTVPSSSLGTQTYICNVNHKPSNTKVDEKVEPKSCDKTHTCPPCPAPEAAGGPSVFLFPPKPKDTLMISRTPEVTCVVVDVSHEDPEVKFNWYVDGVEVHNAKTKPREEQYNSTYRVVSVLTVLHQDWLNGKEYKCKVSNKALGAPIEKTISKAKGQPREPQVCTLPPSRDELTKNQVSLSCAVKGFYPSDIAVEWESNGQPENNYKTTPPVLDSDGSFFLVSKLTVDKSRWQQGNVFSCSVMHEALHNHYTQKSLSLSP
light 1: DIQMTQSPSSLSASVGDRVTITCRASGNIYNYLAWYQQKPGKVPKLLIYDAKTLADGVPSRFSGSGSGTDFTLTISSLQPEDVATYYCQHFWSLPFTFGQGTKLEIKRTVAAPSVFIFPPSDRKLKSGTASVVCLLNNFYPREAKVQWKVDNALQSGNSQESVTEQDSKDSTYSLSSTLTLSKADYEKHKVYACEVTHQGLSSPVTKSFNRGEC
light 2: EVQLLESGGGLVQPGGSLRLSCAASGFTFSSYAMNWVRQAPGKGLEWVSRIRSKYNNYATYYADSVKGRFTISRDDSKNTLYLQMNSLRAEDTAVYYCVRASNFPASYVSYFAYWGQGTLVTVSSASVAAPSVFIFPPSDEQLKSGTASVVCLLNNFYPREAKVQWKVDNALQSGNSQESVTEQDSKDSTYSLSSTLTLSKADYEKHKVYACEVTHQGLSSPVTKSFNRGEC
notes: 2+1 IgG CrossFab, inverted, with charge modifications; human IgG1 Fc with knob-into-hole and P329G LALA; also called P035.093 (in TCB format); TYRP1 TCB P035.093
B1: in assay [1], the “fold increase of affinity compared to CD3orig and CD3opt” value is ≤ 10 fold. Moreover, in assay [2], the “fold higher binding half-life than CD3orig and CD3opt” value is ≤ 4 fold. In assay [3], this molecule returned a Kd of 0.41 nM, a koff of 0.00153 s⁻¹ and a kon of 3.75e+06 M⁻¹ s⁻¹. Besides, in [4], the equilibrium dissociation constant (Kd) amounted to 0.21 nM, the off-rate (koff) worked out at 0.00104 s⁻¹ and the kon was 4.89e+06 M⁻¹ s⁻¹. Besides, the t1/2 in assay [5] stood at 7.55 min. Further, the t1/2 in assay [6] turned out to be 11.1 min. Besides, in [7], the “binding activity [%], 2 weeks at pH 6.0/40°C” value amounted to 97% and the “binding activity [%], 2 weeks at pH 7.4/37°C” value was determined as 95%.

B2: anti-CD3 antibody P035.093 in monovalent human IgG1 format (antibody)
heavy: not shown
chain: DKTHTCPPCPAPEAAGGPSVFLFPPKPKDTLMISRTPEVTCVVVDVSHEDPEVKFNWYVDGVEVHNAKTKPREEQYNSTYRVVSVLTVLHQDWLNGKEYKCKVSNKALGAPIEKTISKAKGQPREPQVCTLPPSRDELTKNQVSLSCAVKGFYPSDIAVEWESNGQPENNYKTTPPVLDSDGSFFLVSKLTVDKSRWQQGNVFSCSVMHEALHNHYTQKSLSLSP
light: B1 light 2
notes: also called P035.093 (in monovalent IgG format)
For B2, the “fold increase of affinity compared to CD3orig” value in assay [8] is ≤ 10 fold. For the same molecule, the values for the t1/2 in [9] and in assay [10] were 8.25 min and 11.8 min, respectively. The Kd is 0.456 nM in assay [11] and 0.224 nM in assay [12]. Further, the off-rate (koff) in assay [11] was 0.0014 s⁻¹; in assay [12], 0.000981 s⁻¹. Moreover, the kon in assay [11] was 3.08e+06 M⁻¹ s⁻¹; in [12], 4.38e+06 M⁻¹ s⁻¹.
